Experimental data taken from US8895526B2, “Identification of RNAI targets and use of RNAI for rational therapy of chemotherapy-resistant leukemia and other cancers” (Cold Spring Harbor Laboratory, priority 2009, dated 2014).

Experiments:
[1] = test system: tet-on competent MLL/AF9+Nras AML; experiment: Pooled negative selection RNAi screening (deep sequencing); format: cell-based, mouse; conditions: deep sequencing reads, On Dox compared to T0
Source text: (§1) In addition to the analysis of single shRNAs for inhibitory effects in vitro and in vivo, the combination of tet-on competent cancer models and tet-regulatable shRNA expression vectors allowing for monitoring shRNA expression through fluorescent and other reporter genes (e.g. TRMPV and derivates) facilitates pooled shRNA negative selection screening (FIG. 37). In such approaches a pool of over 1,000 shRNAs are retrovirally transduced into tet-on competent cancer models (here MLL/AF9+Nras AML) and selected for shRNA containing cells by either drug selection (e.g. G418) or fluorescence-activated cell sorting (FACS). Selected cell populations harboring a library of shRNAs then can be cultured in the absence or presence of doxycyline (off dox and on dox, respectively) or injected into syngeneic recipient mice that are either treated with doxycyline or left untreated.
(§2) The representation of each shRNA within the pool can be effectively assessed by deep sequencing of shRNA cassettes in a given cell population. For this, genomic DNA is extracted from leukemia cells containing the shRNA pool, and the shRNA guide or passenger strand (21-22 target gene specific nucleotides of the shRNA) by PCR using primers specific for common sequences flanking the gene specific part of the shRNA (e.g. miR30 19 nt loop and miR30 common 3′ sequence). The primers also contain 5′-adapters required for deep sequencing (e.g. for Illumina/Solexa sequencing primers are p5+mir3: 5′-[…]-3′ (SEQ ID NO: 215) and p7+Loop: 5′-[…]-3′ (SEQ ID NO: 216)). Deep sequencing is subsequently performed using a primer binding the flanking nucleotide sequence next to the target gene specific part of the shRNA (for Illumina/Solexa platforms the primer is mir30EcoR1Seq: 5′-TAGCCCCTTGAATTCCGA GGCAGTAGGCA-3′ (SEQ ID NO: 217)).
(§3) The use of shRNA vectors that allow for monitoring of shRNA expression through fluorescent and other reporter genes (e.g. TRMPV) in combination with tet-on competent mouse models facilitates the isolation of pure shRNA expressing cell populations (e.g. by FACS, for TRMPV by sorting of Venus/dsRed double positive cells (FIG. 38). This selection of shRNA expressing cells prior to DNA isolation strongly reduces the background caused by cell populations with insufficient shRNA induction, which are predicted to contain genomic representation of the whole shRNA library without shRNA specific shifts in representation. The final readout is based on the comparison of shRNA representation (i.e. deep sequencing read numbers) before the assay (t0) or from cell populations left without doxycycline treatment (off dox) to those where shRNA were induced and cells subsequently sorted for shRNA expressing cells (on dox). shRNA with inhibitory effects are predicted to loose representation (show less reads) on dox compared to t0 and off dox.
(§4) This pooled is RNAi screening strategy can be applied to rapidly survey inhibitory effects of large pools of shRNAs (˜1000 at a time) in different tet-on competent cancer models and normal control cells (FIG. 39). For example, a pool of 1166 shRNAs targeting 836 predominantly druggable genes associated with MLL fusion proteins in human leukemia and mouse models of MLL/AF9-induced AML (MLL cure library) was analyzed in pooled negative selection screening in tet-on competent MLL/AF9+Nras AML and immortalized murine embryonic fibroblasts (Mef) in parallel. To establish and validate this screening approach, the pool also contained 64 control shRNAs each of which have been previously analyzed for inhibitory effects in both AML cells and Mefs using the same experimental system (FIG. 40).
(§5) After pooling of 1166 experimental and 64 control shRNAs the presence of shRNAs was verified by deep sequencing of shRNAs within the plasmid vector pool (FIG. 41). […]

[2] = test system: immortalized murine embryonic fibroblasts (Mef); experiment: as above; format: cell-based; conditions: deep sequencing reads, on dox compared to initial representation
Source text: as §1, §2, §3, §4, §5

B1: Gart.2470: shRNA, SEQ ID NO: 126 (nucleic acid)
chain: TGCTGTTGACAGTGAGCGCAAGAATCTGATTGAAACCATATAGTGAAGCCACAGATGTATATGGTTTCAATCAGATTCTTATGCCTACTGCCTCGGA
- Fold depletion in AML [1]: 146.15 Fold
- Fold depletion in Mef [2]: 0.67 Fold

B2: Ap1s2.2744: shRNA, SEQ ID NO: 90 (nucleic acid)
chain: TGCTGTTGACAGTGAGCGACAGGAGCAAGATGAGTTACTATAGTGAAGCCACAGATGTATAGTAACTCATCTTGCTCCTGCTGCCTACTGCCTCGGA
- Fold depletion in AML [1]: 57.84 Fold
- Fold depletion in Mef [2]: 2.31 Fold

B3: Tnfsf12.1204: shRNA, SEQ ID NO: 187 (nucleic acid)
chain: TGCTGTTGACAGTGAGCGCAATGGATATTAAAGAGAATAATAGTGAAGCCACAGATGTATTATTCTCTTTAATATCCATTTTGCCTACTGCCTCGGA
- Fold depletion in AML [1]: 36.03 Fold
- Fold depletion in Mef [2]: 0.93 Fold

B4: Fn3k.298: shRNA, SEQ ID NO: 122 (nucleic acid)
chain: TGCTGTTGACAGTGAGCGAAAGAGCCTTAGCAGTCAGGCATAGTGAAGCCACAGATGTATGCCTGACTGCTAAGGCTCTTCTGCCTACTGCCTCGGA
- Fold depletion in AML [1]: 103.54 Fold
- Fold depletion in Mef [2]: 2.82 Fold

B5: Gas1.2159: shRNA, SEQ ID NO: 128 (nucleic acid)
chain: TGCTGTTGACAGTGAGCGACCCGAAATTACAACTGCATTATAGTGAAGCCACAGATGTATAATGCAGTTGTAATTTCGGGGTGCCTACTGCCTCGGA
- Fold depletion in AML [1]: 132.34 Fold
- Fold depletion in Mef [2]: 0.81 Fold

B6: Thyn1.315: shRNA, SEQ ID NO: 186 (nucleic acid)
chain: TGCTGTTGACAGTGAGCGCAAGCAACTACTGGCTGATGAATAGTGAAGCCACAGATGTATTCATCAGCCAGTAGTTGCTTATGCCTACTGCCTCGGA
- Fold depletion in AML [1]: 145.53 Fold
- Fold depletion in Mef [2]: 1.04 Fold

B7: L1cam.5255: shRNA, SEQ ID NO: 137 (nucleic acid)
chain: TGCTGTTGACAGTGAGCGCCAGAATTATAACAGGCAAATATAGTGAAGCCACAGATGTATATTTGCCTGTTATAATTCTGATGCCTACTGCCTCGGA
- Fold depletion in AML [1]: 31.42 Fold
- Fold depletion in Mef [2]: 1.26 Fold

B8: Cerk.4466: shRNA, SEQ ID NO: 108 (nucleic acid)
chain: TGCTGTTGACAGTGAGCGCCTGGTATATTTGAGAAGACAATAGTGAAGCCACAGATGTATTGTCTTCTCAAATATACCAGATGCCTACTGCCTCGGA
- Fold depletion in AML [1]: 27.79 Fold
- Fold depletion in Mef [2]: 0.61 Fold

B9: Fn1.4143: shRNA, SEQ ID NO: 121 (nucleic acid)
chain: TGCTGTTGACAGTGAGCGCCAGTAGGATACTACACAGTTATAGTGAAGCCACAGATGTATAACTGTGTAGTATCCTACTGATGCCTACTGCCTCGGA
- Fold depletion in AML [1]: 36.54 Fold
- Fold depletion in Mef [2]: 0.84 Fold

B10: Pygl.1463: shRNA, SEQ ID NO: 171 (nucleic acid)
chain: TGCTGTTGACAGTGAGCGCACCAGACAAGTTCCAGAATAATAGTGAAGCCACAGATGTATTATTCTGGAACTTGTCTGGTTTGCCTACTGCCTCGGA
- Fold depletion in AML [1]: 118.65 Fold
- Fold depletion in Mef [2]: 1.94 Fold

B11: Fosb.1165: shRNA, SEQ ID NO: 123 (nucleic acid)
chain: TGCTGTTGACAGTGAGCGCCAGGCGGAAACTGATCAGCTTTAGTGAAGCCACAGATGTAAAGCTGATCAGTTTCCGCCTGATGCCTACTGCCTCGGA
- Fold depletion in AML [1]: 13.12 Fold
- Fold depletion in Mef [2]: 3.61 Fold

B12: Dsp.6155: shRNA, SEQ ID NO: 114 (nucleic acid)
chain: TGCTGTTGACAGTGAGCGCCAGGAAGTTCTTCGATCAATATAGTGAAGCCACAGATGTATATTGATCGAAGAACTTCCTGTTGCCTACTGCCTCGGA
- Fold depletion in AML [1]: 242.96 Fold
- Fold depletion in Mef [2]: 0.60 Fold

B13: Pitpnm1.561: shRNA, SEQ ID NO: 165 (nucleic acid)
chain: TGCTGTTGACAGTGAGCGCCAGGATGCTTATCAAGGAGTATAGTGAAGCCACAGATGTATACTCCTTGATAAGCATCCTGATGCCTACTGCCTCGGA
- Fold depletion in AML [1]: 60.72 Fold
- Fold depletion in Mef [2]: 0.27 Fold

B14: Adam23.5211: shRNA, SEQ ID NO: 89 (nucleic acid)
chain: TGCTGTTGACAGTGAGCGCTACGACCACGTCAGTTACAAATAGTGAAGCCACAGATGTATTTGTAACTGACGTGGTCGTATTGCCTACTGCCTCGGA
- Fold depletion in AML [1]: 40.11 Fold
- Fold depletion in Mef [2]: 0.30 Fold

B15: Mef2c.1872: shRNA, SEQ ID NO: 141 (nucleic acid)
chain: TGCTGTTGACAGTGAGCGCTGCCTCAGTGATACAGTATAATAGTGAAGCCACAGATGTATTATACTGTATCACTGAGGCAATGCCTACTGCCTCGGA
- Fold depletion in AML [1]: 63.15 Fold
- Fold depletion in Mef [2]: 0.77 Fold

B16: Arf3.1357: shRNA, SEQ ID NO: 91 (nucleic acid)
chain: TGCTGTTGACAGTGAGCGACCCTTCTGTGTTGGTGAGATATAGTGAAGCCACAGATGTATATCTCACCAACACAGAAGGGCTGCCTACTGCCTCGGA
- Fold depletion in AML [1]: 94.96 Fold
- Fold depletion in Mef [2]: 0.86 Fold

B17: Cpd.1693: shRNA, SEQ ID NO: 109 (nucleic acid)
chain: TGCTGTTGACAGTGAGCGCACCAGGTGAACCAGAATTTAATAGTGAAGCCACAGATGTATTAAATTCTGGTTCACCTGGTTTGCCTACTGCCTCGGA
- Fold depletion in AML [1]: 50.07 Fold
- Fold depletion in Mef [2]: 3.91 Fold

B18: Pctk1.948: shRNA, SEQ ID NO: 161 (nucleic acid)
chain: TGCTGTTGACAGTGAGCGCCCGGGAAGTATCCCTGCTTAATAGTGAAGCCACAGATGTATTAAGCAGGGATACTTCCCGGATGCCTACTGCCTCGGA
- Fold depletion in AML [1]: 123.76 Fold
- Fold depletion in Mef [2]: 0.27 Fold

B19: Fgd4.821: shRNA, SEQ ID NO: 119 (nucleic acid)
chain: TGCTGTTGACAGTGAGCGAAAGGAGACTAATGAACAGAAATAGTGAAGCCACAGATGTATTTCTGTTCATTAGTCTCCTTCTGCCTACTGCCTCGGA
- Fold depletion in AML [1]: 25.66 Fold
- Fold depletion in Mef [2]: 2.12 Fold

B20: Slc22a4.2223: shRNA, SEQ ID NO: 181 (nucleic acid)
chain: TGCTGTTGACAGTGAGCGCAAACGTATAAATGCTATCCAATAGTGAAGCCACAGATGTATTGGATAGCATTTATACGTTTATGCCTACTGCCTCGGA
- Fold depletion in AML [1]: 41.21 Fold
- Fold depletion in Mef [2]: 3.41 Fold

B21: Cd6.520: shRNA, SEQ ID NO: 102 (nucleic acid)
chain: TGCTGTTGACAGTGAGCGAGAGCCACTTCTGGGAACACAATAGTGAAGCCACAGATGTATTGTGTTCCCAGAAGTGGCTCCTGCCTACTGCCTCGGA
- Fold depletion in AML [1]: 28.66 Fold
- Fold depletion in Mef [2]: 2.28 Fold

B22: Cx3cr1.1223: shRNA, SEQ ID NO: 111 (nucleic acid)
chain: TGCTGTTGACAGTGAGCGACTGCATCTTATGTGCAAGAAATAGTGAAGCCACAGATGTATTTCTTGCACATAAGATGCAGGTGCCTACTGCCTCGGA
- Fold depletion in AML [1]: 12.98 Fold
- Fold depletion in Mef [2]: 0.69 Fold
